Source: paper doi:10.1101/2025.09.19.677273

Biological target: c8-ring of the Fo domain (bovine (endogenous in bovine heart mitochondria)), P32876
Assay: cryo-EM structure
Conditions: remark: other sources report otherwise

stoichiometry N: 8
B1: c8-ring of the Fo domain, P32876 62-136 (natural protein)
chain: DIDTAAKFIGAGAATVGVAGSGAGIGTVFGSLIIGYARNPSLKQQLFSYAILGFALSEAMGLFCLMVAFLILFAM
